Experimental findings from patent publication US20170253656A1 are described below.

Substitutions are numbered along the chain they refer to.

The chains are these.
B1: 1447-G01 scFv-Fc (Fc fusion, part only; not given: Fc portion, part only)
chain, part: EVQLLESGGGLVQPGGSLRLSCAASGFTFNTSDMSWVRQAPGKGLEWVGIINGSGGATNYADSVKGRFTISRDNSKNTLYLQMNSLRAEDTAVYYCAKYENEMEVSMDYWGQGTLVTVSSGGGGSGGGGSGGGGSEIVLTQSPGTLSLSPGERATLSCRASQSVSSRELGWYQQKPGQAPRLLIYGASSRATGIPDRFSGSGSGTDFTLTISRLEPEDFAVYYCQQQCSWPPTFGQGTKVEIK
B2: 1447-E08 scFv-Fc (Fc fusion, part only; not given: Fc portion, part only)
chain, part: EVQLLESGGGLVQPGGSLRLSCAASGFTFNDTDMSWVRQAPGKGLEWVGMINGAGGASFYADSVRGRFTISRDNSKNTLYLQMNSLRAEDTAVYYCAKFENQWEVTFDYWGQGTLVTVSSGGGGSGGGGSGGGGSEIVLTQSPGTLSLSPGERATLSCRASQRVAGIDLSWYQQKPGQAPRLLIYGASSRATGIPDRFSGSGSGTDFTLTISRLEPEDFAVYYCQQHNTTPPTFGQGTKVEIK
B3: 1193-C08 (scFv)
scFv: EVQLLESGGGLVQPGGSLRLSCAASGFTFNNNWMSWVRQAPGKGLEWVGIINGDDGYTYYADRVKGRFTIIRDNSKNTLYLQMNSLRAEDTAVYYCAKVALGRPRRFDYWGQGTLVTVSSGGGGSGGGGSGGGGSEIVLTQSPGTLSLTPGERATLSCRASQSVSSNYLAWYQQKPGQAPRLLIYGASSRATGIPDRFSGSGSGTDFTLTISRLEPEDFAMYYCQQHYTTPPTFGQGTKVEIK
B4: 1193-H04b (scFv)
scFv: EVQLLESGGGLVQPGGSLRLSCAASGFTFTSSWMSWVRQAPGKGLEWVGIINGYNGITYYADSVKGRFTISRDNSKNTLYLQMNSLRAEDTAVYYCAKPSAPGARRFDYWGQGTLVTVSSGGGGSGGGGSGGGGSEIVLTQSPGTLSLSPGEATLSCRASQSVSSSYLAWYQQRPGQAPRLLIYGASSRATGIPDRFSGSGSGTDFTLTISRLEPEDFAVYYCQQHYTTPPTFGQGTKVEIK
B5: 1193-B06 (scFv)
scFv: EVQLLESGGGLVQPGGSLRLSCAASGFTFTGNWMSWVRQAPGKGLEWVGIIYGTSGATYYADSVKGRFTISRDNSKNTLYLQMNSLRAEDTAVYYCAKPSMSGSRGFDYWGQGTLVTVSSGGGGSGGGGSGGGGSEIVLTQSPGTLSLSPGERATLSCRAGQSVSSSYLAWYQQKPGQAPRLLIYGASSRATGIPDRFSGSGSGTDFTLTISRLEPEDFAVYYCQQHYTTPPTFGQGTKVEIK
B6: 1193-E06b (scFv)
scFv: EVQLLESGGGLVQPGGSLRLSCAASGFTFNNTDMSWVRQAPGKGLEWVGIINGSGGATNYADSVKGRFTISRDNSKNTLYLQMNSLRAEDTAVYYCAKFENEWEVSMDYWGQGTLVTVSSGGGGSGGGGSGGGGSEIVLTQSPGTLSLSPGERATLSCRASQSVSSSYLAWYQQKPGQAPRLLIYGASSRATGIPDRFSGSGSGTDFTLTISRLEPEDFAVYYCQQHYTTPPTFGQGTKVEIK
B7: 1251-A03 heavy chain paired with VL SEQ ID NO: 272 (antibody, V domains shown)
VH: QVQLVESGGGVVQPGRSLRLSCAASGFAFSDHGMHWVRQAPDKGLEWVAVIWYDGSHKIYADSVKGRFTISRDNSKNTLYLQMNSLRAEDTAVYYCARGGSLAGGAVYGTDVWGQGTTVTVSS
VL: DIQMTQSPSSLSASVGDRVTITCRASQGISSWLAWYQQKPEKAPKSLIYAASSLQSGVPSRFSGSGSGTDFTLTISSLQPEDFATYYCQQYNSYPLTFGGGTKVEIK
B8: 1251-F07 heavy chain paired with VL SEQ ID NO: 272 (antibody, V domains shown)
VH: QVQLVESGGGVVQPGRSLRLSCAASGFTFSSHGMHWVRQAPDKGLEWVAVIWDDGSNEVYADSVKGRFTISRDNSKNTLYLQMNSLRAEDTAVYYCARGGTRIRGLRYGTDVWGQGTTVTVSS
VL: B7 VL
B9: 1337-A10 light chain paired with VH 1251-A06 (SEQ ID NO: 236) (Fab, V domains shown)
VH: B8 VH with T28D, H32Y, N57D, E58R, V59Y, I103V, R104L, L106A, R107I, Y108H
VL: B7 VL with L33V, A50G, A51S, S53R, S93T
B10: 1251-D09 heavy chain paired with VL SEQ ID NO: 272 (antibody, V domains shown)
VH: QVQLVESGGGVVQPGRSLRLSCAASGFSFSSYGMHWVRQAPDKGLEWVAVIWYDASIRKYAGSVKGRFTISRDNSKNTLYLQMNSLRAEDTAVYYCARGGTVERGAIYGTDVWGQGTTVTVSS
VL: B7 VL
B11: 1337-A04 light chain paired with VH 1251-A06 (SEQ ID NO: 236) (Fab, V domains shown)
VH: B10 VH with S28D, Y53D, A55G, I57D, K59Y, G62D, V102R, E103V, R104L, Y108H
VL: B7 VL with G28D, S30G, S31R, L33V, A50G, S93T
B12: 1251-D06 heavy chain paired with VL SEQ ID NO: 272 (antibody, V domains shown)
VH: QVQLVESGGGVVQPGRSLRLSCAASGFSFGSYGMHWVRQAPDKGLEWVAVVWYDGSKTIYADSVKGRFTISRDNSKNTLYLQMNSLRAEDTAVYYCARGGTLVRGAVYGLDVWGQGTTVTVSS
VL: B7 VL
B13: 1251-D02 heavy chain paired with VL SEQ ID NO: 272 (antibody, V domains shown)
VH: B8 VH with T28S, S30A, N57D, E58R, V59Y, I103V, R104L, L106A, R107I, Y108H
VL: B7 VL
B14: 1251-B08 heavy chain paired with VL SEQ ID NO: 272 (antibody, V domains shown)
VH: B10 VH with S28N, S31D, A55G, R58S, K59Y, G62D, R104H, I107V, T117A
VL: B7 VL
B15: 1251-G02 heavy chain paired with VL SEQ ID NO: 272 (antibody, V domains shown)
VH: B12 VH with S28T, G30S, V51I, Y53H, T58D, I59Y, T101Q, V103D, R104H, V107I
VL: B7 VL
B16: 1251-A02 heavy chain paired with VL SEQ ID NO: 272 (antibody, V domains shown)
VH: B7 VH
VL: B7 VL
B17: 1337-A08 light chain paired with VH 1251-A06 (SEQ ID NO: 236) (Fab, V domains shown)
VH: B10 VH with S28D, Y53D, A55G, I57D, K59Y, G62D, V102R, E103V, R104L, Y108H
VL: B7 VL with G28D, S30G, L33V, A51S, S52D
B18: 1337-A07 light chain paired with VH 1251-A06 (SEQ ID NO: 236) (Fab, V domains shown)
VH: B10 VH with S28D, Y53D, A55G, I57D, K59Y, G62D, V102R, E103V, R104L, Y108H
VL: B7 VL with L33V, A50G, S53R, N92H, S93T
B19: 1337-A09 light chain paired with VH 1251-A06 (SEQ ID NO: 236) (Fab, V domains shown)
VH: B10 VH with S28D, Y53D, A55G, I57D, K59Y, G62D, V102R, E103V, R104L, Y108H
VL: B7 VL with S30G, S52D, S53R, N92H, S93T
B20: 1337-A05 light chain paired with VH 1251-A06 (SEQ ID NO: 236) (Fab, V domains shown)
VH: B10 VH with S28D, Y53D, A55G, I57D, K59Y, G62D, V102R, E103V, R104L, Y108H
VL: B7 VL with S30G, S31R, L33V, A50G, S52D, S53R
B21: 1337-A06 light chain paired with VH 1251-A06 (SEQ ID NO: 236) (Fab, V domains shown)
VH: B10 VH with S28D, Y53D, A55G, I57D, K59Y, G62D, V102R, E103V, R104L, Y108H
VL: B7 VL with G28D, S30G, L33V, A50G, S52D, S53R
B22: 1251-C03 heavy chain paired with VL SEQ ID NO: 272 (antibody, V domains shown)
VH: QVQLVESGGGVVQPGRSLRLSCAASGFNFSSYGMHWVRQAPDKGLEWVAVIWYDGSIKNYADSVKGRFTISRDNSKNTLYLQMNSLRAEDTAVYYCARGGALMRGEFSGHDVWGQGTTVTVSS
VL: B7 VL
B23: 1251-E06 heavy chain paired with VL SEQ ID NO: 272 (antibody, V domains shown)
VH: QVQLVESGGGVVQPGRSLRLSCAASGFTFDSYGMHWVRQAPDKGLEWVAVIWYDGSNKVYADSVKGRFTISRDNSKNTLYLQMNSLRAEDTAVYYCARGGMVGQGAMFGLDVWGQGTTVTVSS
VL: B7 VL
B24: 1251-F06 heavy chain paired with VL SEQ ID NO: 272 (antibody, V domains shown)
VH: QVQLVESGGGVVQPGRSLRLSCAASGFTFSSFGMHWVRQAPDKGLEWVAVIWYDGSNEYYADSVKGRFTISRDNSKNTLYLQMNSLRAEDTAVYYCARGGSLVTRGVYGLDVWGQGTTVTVSS
VL: B7 VL
B25: 1251-B09 heavy chain paired with VL SEQ ID NO: 272 (antibody, V domains shown)
VH: B12 VH with S28N, G30S, S31D, V51T, K57R, T58E, I59Y, R104H, V107L, L110N
VL: B7 VL
B26: 1251-A06 heavy chain paired with VL SEQ ID NO: 272 (antibody, V domains shown)
VH: B10 VH with S28D, Y53D, A55G, I57D, K59Y, G62D, V102R, E103V, R104L, Y108H
VL: B7 VL

The target in one assay is CD74 on CD74 positive SU-DHL-6 cells (UniProt P04233). Kind of assay: cell-based or functional assay.
CD74 on CD74 positive SU-DHL-6 cells, sequence (P04233 whole entry): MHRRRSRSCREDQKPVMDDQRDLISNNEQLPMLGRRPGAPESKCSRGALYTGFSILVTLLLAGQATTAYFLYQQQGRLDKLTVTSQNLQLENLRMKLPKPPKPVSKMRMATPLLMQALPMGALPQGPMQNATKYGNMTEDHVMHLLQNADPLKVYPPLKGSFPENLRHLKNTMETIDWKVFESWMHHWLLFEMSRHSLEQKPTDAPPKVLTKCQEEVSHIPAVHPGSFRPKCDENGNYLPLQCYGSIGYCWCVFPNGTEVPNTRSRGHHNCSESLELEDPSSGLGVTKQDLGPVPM
In turn, B1 had a 2nd ADC Cell Killing IC50 of 650 pM.
With B2, the 2nd ADC Cell Killing IC50 came out at 2560 pM.

The target in a further assay is CD74 on CD74 positive SU-DHL-6 cells, P04233. The assay is described as follows: cell-based or functional assay.
CD74 on CD74 positive SU-DHL-6 cells, P04233, sequence (P04233 whole entry): as above
For B3, the 2nd ADC Cell Killing IC50 is 8660 pM.
Still for that read-out and setting: the figure for B4 is 14800 pM; for B5 it is 10300 pM; for B6 it is 8670 pM.
On the same count and under the same terms, for B7 the value was 10 pM; for B8, 9 pM; for B9, 6 pM.
Still for that read-out and setting: for B10 the value was 7 pM.
Consider B11, for which the 2nd ADC Cell Killing IC50 is 4 pM.
Same read-out and setting: the figure for B12 is 4 pM.
B13 returned a 2nd ADC Cell Killing IC50 of 14 pM.
Same read-out and setting: for B14 the value was 7 pM; for B15, 13 pM; for B16, 9 pM.
In turn, B17 gave a 2nd ADC Cell Killing IC50 of 7 pM.
In the case of B18, the 2nd ADC Cell Killing IC50 turned out to be 4 pM.
On the same count and under the same terms, for B19 the value was 4 pM.
The same measure, in the same setting: for B20 the value was 4 pM.
Same read-out and setting: for B21 the value was 4 pM; for B22, 50 pM; for B23, 15 pM.
B24: the 2nd ADC Cell Killing IC50 is 17 pM.
The same measure, in the same setting: the figure for B25 is 7 pM; for B26 it is 0.2 pM.
